These results are taken from article PMC8549118 (Nature structural & molecular biology, 2021).

Non-standard residues stand in square brackets, D forms with d. No end group written: not given here. pT = C[C@@H](OP(=O)(O)O)[C@H](N)C(=O)O; pS = N[C@@H](COP(=O)(O)O)C(=O)O

For the assay, the target named is T1, VSP-C363S (voltage-sensing phosphatase, aa 241-576) (C. intestinalis, UniProt Q4W8A1 241-576, C363S).
T1 sequence (looked up): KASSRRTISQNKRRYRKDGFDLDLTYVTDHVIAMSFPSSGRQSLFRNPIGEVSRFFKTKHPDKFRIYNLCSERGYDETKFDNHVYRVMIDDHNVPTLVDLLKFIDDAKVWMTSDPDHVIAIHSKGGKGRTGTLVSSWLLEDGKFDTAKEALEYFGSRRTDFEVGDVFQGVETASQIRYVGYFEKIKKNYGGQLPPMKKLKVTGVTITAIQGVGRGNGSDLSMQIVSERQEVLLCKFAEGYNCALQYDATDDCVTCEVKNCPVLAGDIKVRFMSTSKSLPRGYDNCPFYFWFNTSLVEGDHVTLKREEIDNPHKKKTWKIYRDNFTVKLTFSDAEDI
As to the kind of experiment: fluorescence polarisation. In general terms: In fluorescence polarisation assays a small probe gives low polarisation when free and higher when bound to something large.

For the molecule CRY[pS]D[pT][pT]D[pS]DPENEG [4p-T2, tetraphosphorylated PTEN C-tail peptide (15 aa)], the binding result is listed as “binds”.
